The target of the assay is B61/B51 (on B61/B51-matched allogeneic LCL). Put plainly: cell-based or functional assay.

On to QEPLYPVQVSSADARLMVFDKTEGTWRLLCSSRSNAR [hepsin peptide 48-84 (residues 48-84 of hepsin)], for which the Percent cell killing; B61/B51-matched allogeneic LCL + peptide; CD8+ T cells of donor is 27.1%.

The values above are taken from patent publication US20080152663A1.
